From publication doi:10.1101/2025.06.11.659033 (bioRxiv, 2025) come the findings set out here.

Like-named read-outs stand apart in the source and are kept apart here.

Data set [1] deals with the molecule itself. The data set can be described thus: SEC.
Data set [2] deals with the molecule itself. The data set can be described thus: SEC. The source holds these as a separate data set.

B1: HDPpf-C10 (Δ44N, C-terminal 6His) (domain or fragment, Plasmodium falciparum, UniProt Q8IL04 45-205, looked up)
chain: KPVKRTIINLIYSHNELKIFSNLLNHPTVGSSLIHELSLDGPYTAFFPSNEAMQLINIESFNKLYNDENKLSEFVLNHVTKEYWLYRDLYGSSYQPWLMYNEKREAPEKLRNLLNNDLIVKIEGEFKHCNHSIYLNGSKIIRPNMKCHNGVVHIVDKPIIF
Turning to B1, the “stoichiometry N” value in “SEC [1]” was 2.

B2: HDPpf-N4 (Δ37N, 3 C-terminal residues deleted) (domain or fragment, Plasmodium falciparum, UniProt Q8IL04 38-202, looked up)
chain: VYWCFEHKPVKRTIINLIYSHNELKIFSNLLNHPTVGSSLIHELSLDGPYTAFFPSNEAMQLINIESFNKLYNDENKLSEFVLNHVTKEYWLYRDLYGSSYQPWLMYNEKREAPEKLRNLLNNDLIVKIEGEFKHCNHSIYLNGSKIIRPNMKCHNGVVHIVDKP
Turning to B2, the “stoichiometry N” value in “SEC [2]” is 2.
